Where only a bound is given, the exact number is not on record here.

The target of this assay is biotinylated peptide comprising the NH2-terminal 73 amino acids of GM130 (N73pep) (UniProt Q62839). Kind of assay: pull-down.

B1: p115, vesicle tethering protein (natural protein)
chain: MNFLRGVMGGQSAGPQHTEAETIQKLCDRVASSTLLDDRRNAVRALKSLSKKYRLEVGIQAMEHLIHVLQTDRSDSEIIAYALDTLYNIISNDEEEEVEENSTRQSEDLGSQFTEIFIKQPENVTLLLSLLEEFDFHVRWPGVRLLTSLLKQLGPPVQQIILVSPMGVSKLMDLLADSREIIRNDGVLLLQALTRSNGAIQKIVAFENAFERLLDIITEEGNSDGGIVVEDCLILLQNLLKNNNSNQNFFKEGSYIQRMKAWFEVGDENPGWSAQKVTNLHLMLQLVRVLVSPTNPPGATSSCQKAMFQCGLLQQLCTILMATGIPADILTETINTVSEVIRGCQVNQDYFASVNAPSNPPRPAIVVLLMSMVNERQPFVLRCAVLYCFQCFLYKNEKGQGEIVATLLPSTIDATGNSVSAGQLLCGGLFSTDSLSNWCAAVALAHALQGNATQKEQLLRVQLATSIGNPPVSLLQQCTNILSQGSKIQTRVGLLMLLCTWLSNCPIAVTHFLHNSANVPFLTGQIAENLGEEEQLVQGLCALLLGISIYFNDNSLENYTKEKLKQLIEKRIGKENYIEKLGFISKHELYSRASQKPQPNFPSPEYMIFDHEFTKLVKELEGVITKAIYKSSEEDKKEEEVKKTLEQHDNIVTHYKNMIREQDLQLEELKQQVSTLKCQNEQLQTAVTQQASQIQQHKDQYNLLKVQLGKDNHHQGSHSDGAQVNGIQPEEISRLREEIEELRSHQVLLQSQLAEKDTVIENLRSSQVSGMSEQALATCSPRDAEQVAELKQELSALKSQLCSQSLEITRLQTENSELQQRAETLAKSVPVEGESELVTAAKTTDVEGRLSALLQETKELKNEIKALSEERTAIQKQLDSSNSTIAILQTEKDKLYLEVTDSKKEQDDLLVLLADQDQKILSLKSKLKDLGHPVEEEDESGDQEDDDDELDDGDRDQDI
B1 came in with a percent of p115 depleted from cytosol of over 95%.

Values taken from PMC2199741.
